This note sets out measurements from publication PMC6553876 (PLoS Pathogens, 2019).

For this assay, the target named is T1, DEN4-80E (Dengue virus type 4, strain H241 …, UniProt Q58HT7).
T1 construct: Envelope (E) protein of dengue virus serotype 4, strain H241, truncated form: 80% of the N-terminal of the E protein; also called DEN-80E of DENV4; truncated envelope protein of DENV4; source: recombinant E protein, component of the tetravalent dengue subunit vaccine V180 (Merck and Co. Inc.)
Put plainly: BLI; Octet RED96 epitope binning: first mAb (30 ug/ml) captured on protein A sensor for 600 s, blocking antibody (200 ug/ml) 300 s, DEN4-80E loaded at 30 ug/ml for 300 s, then second mAb (d462, 5H2, d559, d182). The following applies: both partners purified.

T1 sequence (Q58HT7 whole entry, looked up, the tested form may be a part): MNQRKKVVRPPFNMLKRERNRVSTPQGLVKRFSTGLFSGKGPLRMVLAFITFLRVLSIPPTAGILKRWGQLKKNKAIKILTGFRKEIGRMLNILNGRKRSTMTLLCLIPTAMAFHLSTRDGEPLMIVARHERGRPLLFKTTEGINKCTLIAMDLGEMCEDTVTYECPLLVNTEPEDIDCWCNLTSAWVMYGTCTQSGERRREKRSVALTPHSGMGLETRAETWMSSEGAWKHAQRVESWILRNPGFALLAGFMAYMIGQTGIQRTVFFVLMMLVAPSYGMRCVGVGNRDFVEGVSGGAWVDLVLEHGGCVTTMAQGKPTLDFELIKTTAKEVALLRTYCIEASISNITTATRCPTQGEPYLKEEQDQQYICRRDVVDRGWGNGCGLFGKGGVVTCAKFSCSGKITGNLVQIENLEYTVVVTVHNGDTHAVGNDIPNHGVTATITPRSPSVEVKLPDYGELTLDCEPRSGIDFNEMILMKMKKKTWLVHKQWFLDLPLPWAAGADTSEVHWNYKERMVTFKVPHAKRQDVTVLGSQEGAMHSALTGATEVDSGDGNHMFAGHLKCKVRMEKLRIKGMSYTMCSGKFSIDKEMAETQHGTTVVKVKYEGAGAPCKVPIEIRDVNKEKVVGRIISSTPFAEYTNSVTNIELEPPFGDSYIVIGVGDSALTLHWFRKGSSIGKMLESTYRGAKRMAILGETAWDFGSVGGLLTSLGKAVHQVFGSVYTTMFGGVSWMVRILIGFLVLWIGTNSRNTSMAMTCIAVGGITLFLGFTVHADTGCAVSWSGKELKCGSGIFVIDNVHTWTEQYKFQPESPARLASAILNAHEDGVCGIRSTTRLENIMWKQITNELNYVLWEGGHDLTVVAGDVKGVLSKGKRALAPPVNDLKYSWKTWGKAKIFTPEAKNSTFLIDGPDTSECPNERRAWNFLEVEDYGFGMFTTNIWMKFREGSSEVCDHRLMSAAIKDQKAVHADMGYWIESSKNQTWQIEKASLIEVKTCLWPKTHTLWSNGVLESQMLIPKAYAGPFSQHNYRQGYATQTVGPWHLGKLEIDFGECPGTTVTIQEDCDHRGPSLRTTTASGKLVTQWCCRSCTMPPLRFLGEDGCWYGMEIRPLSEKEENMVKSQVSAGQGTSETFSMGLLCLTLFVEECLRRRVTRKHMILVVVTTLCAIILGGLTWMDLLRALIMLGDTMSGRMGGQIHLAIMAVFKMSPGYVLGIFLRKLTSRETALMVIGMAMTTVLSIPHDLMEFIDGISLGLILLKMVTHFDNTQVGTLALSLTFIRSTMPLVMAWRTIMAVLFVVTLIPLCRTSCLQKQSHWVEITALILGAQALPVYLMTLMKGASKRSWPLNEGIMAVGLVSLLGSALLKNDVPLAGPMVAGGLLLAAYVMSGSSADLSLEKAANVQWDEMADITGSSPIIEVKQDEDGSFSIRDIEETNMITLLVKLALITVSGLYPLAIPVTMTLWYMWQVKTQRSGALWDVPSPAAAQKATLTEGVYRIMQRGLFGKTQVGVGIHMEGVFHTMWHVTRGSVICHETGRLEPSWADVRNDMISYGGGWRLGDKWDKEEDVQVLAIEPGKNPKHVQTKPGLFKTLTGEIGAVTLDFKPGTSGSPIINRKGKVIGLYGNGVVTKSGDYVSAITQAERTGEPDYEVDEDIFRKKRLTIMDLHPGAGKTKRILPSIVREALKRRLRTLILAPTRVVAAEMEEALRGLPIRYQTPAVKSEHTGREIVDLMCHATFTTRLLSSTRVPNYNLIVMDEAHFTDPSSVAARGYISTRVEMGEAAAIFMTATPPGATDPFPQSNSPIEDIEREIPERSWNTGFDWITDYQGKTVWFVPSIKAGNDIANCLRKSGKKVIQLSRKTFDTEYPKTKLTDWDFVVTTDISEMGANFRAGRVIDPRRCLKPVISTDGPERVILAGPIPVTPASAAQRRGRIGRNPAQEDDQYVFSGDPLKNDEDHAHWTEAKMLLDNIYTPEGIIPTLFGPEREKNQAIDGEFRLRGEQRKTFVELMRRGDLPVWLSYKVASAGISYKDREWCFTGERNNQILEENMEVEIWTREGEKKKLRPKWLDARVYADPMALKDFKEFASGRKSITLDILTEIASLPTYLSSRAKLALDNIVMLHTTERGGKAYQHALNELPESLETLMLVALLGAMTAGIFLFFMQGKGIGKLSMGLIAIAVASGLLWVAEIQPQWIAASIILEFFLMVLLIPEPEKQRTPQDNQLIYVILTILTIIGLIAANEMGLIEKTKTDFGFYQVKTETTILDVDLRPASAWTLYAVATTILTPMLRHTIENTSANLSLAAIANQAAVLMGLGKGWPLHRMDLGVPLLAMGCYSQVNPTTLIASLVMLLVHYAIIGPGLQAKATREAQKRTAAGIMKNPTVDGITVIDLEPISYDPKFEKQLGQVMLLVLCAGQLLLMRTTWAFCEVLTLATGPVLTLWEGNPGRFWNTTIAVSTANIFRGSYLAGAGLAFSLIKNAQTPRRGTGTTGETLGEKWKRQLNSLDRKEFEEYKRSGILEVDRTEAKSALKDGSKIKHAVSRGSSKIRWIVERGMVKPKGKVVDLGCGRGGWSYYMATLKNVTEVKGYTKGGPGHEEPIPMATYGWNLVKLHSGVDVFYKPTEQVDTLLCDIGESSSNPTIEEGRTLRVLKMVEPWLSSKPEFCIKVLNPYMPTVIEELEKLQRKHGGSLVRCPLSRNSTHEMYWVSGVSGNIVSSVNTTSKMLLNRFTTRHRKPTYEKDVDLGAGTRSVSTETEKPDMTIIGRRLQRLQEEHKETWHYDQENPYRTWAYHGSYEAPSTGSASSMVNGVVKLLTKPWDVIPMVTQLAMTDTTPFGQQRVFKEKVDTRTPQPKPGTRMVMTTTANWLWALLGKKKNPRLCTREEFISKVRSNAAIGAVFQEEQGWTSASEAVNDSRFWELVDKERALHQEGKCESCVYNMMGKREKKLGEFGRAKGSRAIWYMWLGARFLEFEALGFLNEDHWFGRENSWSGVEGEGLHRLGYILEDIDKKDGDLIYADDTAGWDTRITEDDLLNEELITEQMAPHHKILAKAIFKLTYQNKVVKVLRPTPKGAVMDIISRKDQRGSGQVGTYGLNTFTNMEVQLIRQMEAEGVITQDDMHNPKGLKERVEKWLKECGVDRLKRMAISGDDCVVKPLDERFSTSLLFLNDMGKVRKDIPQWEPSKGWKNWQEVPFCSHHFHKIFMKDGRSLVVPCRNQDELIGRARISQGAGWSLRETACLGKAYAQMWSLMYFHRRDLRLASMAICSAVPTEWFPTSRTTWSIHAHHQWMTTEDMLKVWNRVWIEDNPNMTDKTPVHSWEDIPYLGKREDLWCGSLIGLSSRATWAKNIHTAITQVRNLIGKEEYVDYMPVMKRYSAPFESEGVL

B1: chimpanzee antibody 5H2 (antibody, V domains shown)
VH: EVQLLESGPGLVKPSETLSLTCTVSGGSISDFYWSWLRQSPGKGLEWIGYAHSRVSAYYNPSLKSRVTISVDTSKNQISLRLSAVTAADTALYYCARQGTGTTGVSEDSFDLWGQGTKVIVSL
VL: ELQMTQSPSSLSASVGDRVTITCRASQDISIRLNWYQQKPGKAPKLLIYDASTLESGVPSRFSGSGSGTDFTLTISSLQPEDFATYYCQQFNSYPLTFGGGTKVEIK
notes: also called mAb 5H2
For B1, the binding result was “binds”.
